# Measured values taken from patent publication US20240115742A1, “FLUORINATED FIBERS FOR MULTIMODAL 1H AND 19F MRI, ULTRASOUND, FLUORESCENCE DETECTION AND CONFORMATIONAL AND TEMPERATURE DETECTION BY 19F MRS” (New York University, priority 2022, published 2024).
# Experiment: Passive microrheology (multiple particle tracking)
# Format: physicochemical
# Details: 4 °C
# Method: Microrheology. Protein was concentrated to 2 mM, as measured by BCA assay, and immediately aliquoted 27.7 μL into a 200 μL PCR tube. 1% v/v (or 0.3 μL) of […] red polystyrene fluorometric beads (FluoSpheres) were then added to the sample. A glass capillary tube was then loaded with sample by capillary action and sealed to prevent evaporation while being affixed to a microscopy slide using two-component fast-curing epoxy (JB Weld). Samples were then imaged at 0 h as a starting measurement and then every 12 h using a Leica DMI4000b inverted microscope equipped with a Leica DFC310 FX 1.4 megapixel camera at 40× magnification with 2×2 binning. […] Each image series was recorded for a total of 300 frames with a lag time (i) of 0.037 s between each frame. Relaxation exponents i.e. the logarithmic slopes of particle mean-squared displacements (MSDs) with respect to lag time as determined by multiple particle tracking (MPT) analysis were used to determine when equilibration of the hydrogel was complete and measurements were no longer recorded (60 h in this case). […]
# Gelation kinetics of the hydrogels were assessed using passive microrheology (FIG. 61a-e). Time to gelation was measured immediately after concentration to 2 mM at 4° C. by incubating with 1 μm fluorescent tracer beads added to the protein in solution state at a final concentration of 1% (v/v). […]
substance,measurement,value
"Q5: Q hydrogel variant from Rosetta Monte Carlo search, SEQ ID NO: 14 (MRGSHHHHHHGSIEGRVKEITFIKKTIEQIAEEMKEINKAIHDIRHALENISKK) [Protein Q5]",time to complete gelation (sol-gel transition),≤ 24 h
